For experiment [1], the target named is T1, EGFRvIII, full length, overexpressed on glioblastoma cells (human, UniProt P00533 298-623).
T1 construct: Cells overexpress full length EGFRvIII (deletion of exons 2-7 of EGFR); Cell line (U87MG or DKMG) is named under assay; also called U87MG-EGFRvIII; U87vIII
In words: flow cytometry dose-response on U87MG EGFRvIII cells, apparent Kd (n=2). On the technique in general: A flow cytometer gives signals particle by particle.
Method: (§1) Prior to analysis, cells were plated such that they were not more than 80% confluent on the day of analysis. Unless otherwise stated, all media are kept are 4° C. and all incubations are performed on wet ice. Cells were washed in PBS, harvested by the addition of cell dissociation buffer (Sigma), centrifuged and resuspended in complete medium at a cell density of 2×10⁶ cells/mL. Fifty μL/well of cells were distributed in a polypropylene v-bottom 96 well plate and serial 1/3 dilutions of purified mAbs starting at 100 nM were added and incubated for 2 hours. […] Cells were washed and re-suspended in medium containing Propidium iodide to exclude dead cells from analysis. Samples were filtered through a 60 μm nylon mesh filter plate (Millipore, Ireland) to remove cell aggregates. Flow cytometry analyses were performed on 2,000 viable single-cells events gated on forward scattering, side scattering parameters and propidium iodide dye exclusion using a BD-LSRFortessa flow cytometer (Becton-Dickinson Biosciences, CA, USA) and a standard filter set using BD FACSDiva™ acquisition software, according to manufacturer's instructions.
(§2) These cells were grown in RPMI and 10% fetal bovine serum using standard culturing conditions.

Experiment [2] concerns the target T2, wild type human EGFR, full length, overexpressed on U87MG cells (human, UniProt P00533 25-1210).
T2 construct: also called U87MG-EGFR wt; U87 WT
Nature of the experiment: flow cytometry dose-response, U87MG EGFR wt cells.
Method: as §1
Specific detection of antibody binding was calculated as the mean fluorescent intensity of binding to each primary antibody after background level subtraction of the mean fluorescent intensity of binding of mouse IgG control. The data were analyzed with GraphPad Prism v 6.0 software using one-site specific binding with Hill slope non-linear regression curve fit model to determine Bmax (maximum specific binding) and Kdₐₚₚ (concentration needed to achieve a half-maximum binding at equilibrium) for each mAb tested.

Experiment [3] addresses T1, EGFRvIII, full length, overexpressed on …. In words: flow cytometry dose-response on DKMG EGFRvIII cells (n=1).
Method: as §1, §2
Experiment [4] has the same target. Nature of the experiment: flow cytometry dose-response on DKMG EGFRvIII cells, apparent Kd (n=1).
Method: as §1, §2
Experiment [5] addresses T3, EGFRvIII fragment amino acid residues 1 to 18, displayed on yeast (human).
T3 construct: also called aa 1-18
T3 peptide: LEEKKGNYVVTDHGSCVR
In words: yeast surface display, flow cytometry.
From the text: Assessment of the binding of anti-EGFRvIII mAbs to the fusion proteins expressed on yeast cell surface was done by flow cytometry analysis. Briefly, yeast cells were labeled with both the anti-hEGFRvIII mAb and chicken anti-Myc antibody, the latter being used to monitor the level of expression of the fusion protein. Following a wash step, binding of the primary antibodies is probed by a two-color indirect fluorescence labeling using secondary antibodies specific for mouse and chicken antibodies, respectively.

B1: hFc-5G6 (antibody, human IgG1, kappa, V domains shown)
VH: EVQLQQSGAELARPGASVKMSCKASGYTFTSYWMHWVKQRPGQGLEWIGAIYPGNSDISYNQKFKGKAKLTAVTSATTAYMELSSLTNEDSAVYYCTLYDYDPDYWGQGTTLTVSS
VL: not shown
notes: Chimeric antibody, mouse variable regions on human IgG1 / human kappa, produced in CHO cells; also called chimeric 5G6
With B1, the Kd in experiment [1] came to 1.53 nM; in experiment [4] it was 0.832 nM. In addition, in experiment [2], the binding result is “no binding”. Moreover, the Bmax in experiment [3] stood at 16900.

B2: hFc-13.1.2 (antibody, human IgG1, kappa, V domains shown)
VH: QVQLVESGGGVVQPGRSLRLSCAASGFTFSSYGMHWVRQAPGKGLEWVAVIWYDGSNKYYVDSVKGRFTISRDNSKNTLYLQMNSLRAEDTAVYYCARDGWQQLAPFDYWGQGTLVTVSS
VL: not shown
Turning to B2, the Kd in experiment [1] was determined as 5.22 nM; in experiment [4], 0.947 nM. For the same molecule, the figures for the binding result in experiment [5] and in experiment [2] were “binds” and “no binding”, respectively. The Bmax in experiment [3] was determined as 16500.

For the origin of these results see patent publication US20220193132A1 (NATIONAL RESEARCH COUNCIL OF CANADA, published 2022).
